No end group written: not given here. *: point of attachment. RhodamineB = CCN(CC)c1ccc2c(-c3ccccc3C(=O)*)c3ccc(=[N+](CC)CC)cc-3oc2c1
B11: RPtag(small) Nd2, Cd4 (peptide)
peptide: RhodamineB-KIPNFIPAELKLITK

How the values were obtained:
RPtag(small) Nd2, Cd4 = molecular target: B11; assay: fluorescence anisotropy; 2 nM rhodamine Nd2Cd4, unlabeled RPtag large variant titrated; bar of Ka = 1/Kd, right axis
Method: (§1) After the incubation, fluorescence anisotropy was measured, and the resultant curves were fit with the equation f=y0+(ymax−y0)*(Ptot+x+Kd−sqrt((Ptot+x+Kd)\hat{ }2−4*Ptot*x))/(2*Ptot), where y0 is the baseline anisotropy, ymax is the maximum anisotropy, Ptot is the fixed concentration of labeled peptide used, x is the variable concentration of protein used, and Kd is the measured Kd. […] Buffer was 50 mM Tris pH 8.0, 0.005% Tween20.

[1] = molecular target: T1, MaturePDGF-β_NterminalPeptide; assay: fluorescence anisotropy; 20 nM rhodamine PDGF-β N-terminal peptide, unlabeled RPtag large variant titrated; bar of Ka = 1/Kd, left axis
T1 construct: an N-terminal G was added and is left out of the numbering; also called PDGF-β peptide
T1 peptide: RhodamineB-GSLGSLTIAEPAMIAE
Method: as §1

[2] = molecular target: T2, NativeRPtag(large)_with_Tags_and_Cys (Thermoanaerobacter tengcongensis); assay: fluorescence anisotropy
T2 construct: Unlabeled in anisotropy assays; coupled through the engineered N-terminal Cys to SulfoLink agarose or maleimide plates in column, pull-down and ELISA assays
T2 chain: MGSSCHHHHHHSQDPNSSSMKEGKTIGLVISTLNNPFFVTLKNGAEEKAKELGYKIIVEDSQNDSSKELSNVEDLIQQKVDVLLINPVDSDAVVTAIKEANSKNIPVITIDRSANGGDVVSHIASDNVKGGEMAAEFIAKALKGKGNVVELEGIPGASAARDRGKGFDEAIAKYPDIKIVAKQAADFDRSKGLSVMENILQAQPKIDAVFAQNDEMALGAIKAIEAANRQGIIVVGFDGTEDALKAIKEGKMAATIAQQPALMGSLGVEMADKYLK

[3] = molecular target: T2, NativeRPtag(large)_with_Tags_and_Cys; assay: calculated from koff and Kd
[4] = molecular target: T2, NativeRPtag(large)_with_Tags_and_Cys; assay: fluorescence anisotropy, competitor chase
[5] = molecular target: T2, NativeRPtag(large)_with_Tags_and_Cys; assay: fluorescence anisotropy, association kinetics

B1: a253k (designed binder)
single chain: MGSSCHHHHHHSQDPNSSSMKEGKTIGLVISTLNNPFFVTLKNGAEEKAKELGYKIIVEDSQNDSSKELSNVEDLIQQKVDVLLINPVDSDAVVTAIKEANSKNIPVITIDRSANGGDVVSHIASDNVKGGEMAAEFIAKALKGKGNVVELEGIPGASAARDRGKGFDEAIAKYPDIKIVAKQAADFDRSKGLSVMENILQAQPKIDAVFAQNDEMALGAIKAIEAANRQGIIVVGFDGTEDALKAIKEGKMKATIAQQPALMGSLGVEMADKYLK
notes: also called RPtag(large) A253K
binding result (RPtag(small) Nd2, Cd4): binds
binding result [1]: binds

B2: a253r (designed binder)
single chain: MGSSCHHHHHHSQDPNSSSMKEGKTIGLVISTLNNPFFVTLKNGAEEKAKELGYKIIVEDSQNDSSKELSNVEDLIQQKVDVLLINPVDSDAVVTAIKEANSKNIPVITIDRSANGGDVVSHIASDNVKGGEMAAEFIAKALKGKGNVVELEGIPGASAARDRGKGFDEAIAKYPDIKIVAKQAADFDRSKGLSVMENILQAQPKIDAVFAQNDEMALGAIKAIEAANRQGIIVVGFDGTEDALKAIKEGKMRATIAQQPALMGSLGVEMADKYLK
notes: also called RPtag(large) A253R
binding result (RPtag(small) Nd2, Cd4): binds
binding result [1]: binds

B3: d126a (designed binder)
single chain: MGSSCHHHHHHSQDPNSSSMKEGKTIGLVISTLNNPFFVTLKNGAEEKAKELGYKIIVEDSQNDSSKELSNVEDLIQQKVDVLLINPVDSDAVVTAIKEANSKNIPVITIDRSANGGDVVSHIASANVKGGEMAAEFIAKALKGKGNVVELEGIPGASAARDRGKGFDEAIAKYPDIKIVAKQAADFDRSKGLSVMENILQAQPKIDAVFAQNDEMALGAIKAIEAANRQGIIVVGFDGTEDALKAIKEGKMAATIAQQPALMGSLGVEMADKYLK
notes: also called RPtag(large) D126A
binding result (RPtag(small) Nd2, Cd4): binds
binding result [1]: binds

B4: d126w (designed binder)
single chain: MGSSCHHHHHHSQDPNSSSMKEGKTIGLVISTLNNPFFVTLKNGAEEKAKELGYKIIVEDSQNDSSKELSNVEDLIQQKVDVLLINPVDSDAVVTAIKEANSKNIPVITIDRSANGGDVVSHIASWNVKGGEMAAEFIAKALKGKGNVVELEGIPGASAARDRGKGFDEAIAKYPDIKIVAKQAADFDRSKGLSVMENILQAQPKIDAVFAQNDEMALGAIKAIEAANRQGIIVVGFDGTEDALKAIKEGKMAATIAQQPALMGSLGVEMADKYLK
notes: also called RPtag(large) D126W
binding result (RPtag(small) Nd2, Cd4): binds
binding result [1]: binds

B5: RPtag(small) Cd1 (peptide)
peptide: RhodamineB-GEKIPNFIPAELKLITKENV
Kd [2]: 0.55 nM
kon [3]: 183000 M⁻¹ s⁻¹
koff [4]: 0.000102 s⁻¹
Keq (S-S*) [5]: 2.5
kf (S to S*) [5]: 0.1 min⁻¹
kr (S* to S) [5]: 0.042 min⁻¹

B6: RPtag(small) Nd2, Cd3 (peptide)
peptide: RhodamineB-KIPNFIPAELKLITKE
Kd [2]: 0.56 nM
kon [3]: 1.37e+06 M⁻¹ s⁻¹
koff [4]: 0.000767 s⁻¹
Keq (S-S*) [5]: 0.6
kf (S to S*) [5]: 0.081 min⁻¹
kr (S* to S) [5]: 0.14 min⁻¹

B7: RPtag(small) Nd2, Cd3, p5a (peptide)
peptide: RhodamineB-KIANFIPAELKLITKE
Kd [2]: 0.64 nM
kon [3]: 4.33e+06 M⁻¹ s⁻¹
koff [4]: 0.00267 s⁻¹
Keq (S-S*) [5]: 0.6
kf (S to S*) [5]: 0.093 min⁻¹
kr (S* to S) [5]: 0.16 min⁻¹

B8: RPtag(small) Nd2, Cd3, e18a (peptide)
peptide: RhodamineB-KIPNFIPAELKLITKA
Kd [2]: 0.13 nM
kon [3]: 6.67e+06 M⁻¹ s⁻¹
koff [4]: 0.000883 s⁻¹
Keq (S-S*) [5]: 0.3
kf (S to S*) [5]: 0.084 min⁻¹
kr (S* to S) [5]: 0.26 min⁻¹

B9: RPtag(small) Nd2, Cd3, p5a, e18a (peptide)
peptide: RhodamineB-KIANFIPAELKLITKA
Kd [2]: 0.56 nM
kon [3]: 5.5e+06 M⁻¹ s⁻¹
koff [4]: 0.003 s⁻¹
Keq (S-S*) [5]: 0.7
kf (S to S*) [5]: 0.086 min⁻¹
kr (S* to S) [5]: 0.13 min⁻¹

B10: RPtag(small) Cd4 (peptide)
peptide: RhodamineB-GEKIPNFIPAELKLITK
Kd [2]: 1 nM
kon [3]: 3.67e+06 M⁻¹ s⁻¹
koff [4]: 0.00367 s⁻¹
Keq (S-S*) [5]: 1.3
kf (S to S*) [5]: 0.014 min⁻¹
kr (S* to S) [5]: 0.11 min⁻¹

B11
Kd [2]: 0.41 nM
kon [3]: 3.33e+06 M⁻¹ s⁻¹
koff [4]: 0.00132 s⁻¹
Keq (S-S*) [5]: 0.7
kf (S to S*) [5]: 0.093 min⁻¹
kr (S* to S) [5]: 0.13 min⁻¹

B12: RPtag(small) Nd2, Cd4, p5a (peptide)
peptide: RhodamineB-KIANFIPAELKLITK
Kd [2]: 0.82 nM
kon [3]: 3.67e+06 M⁻¹ s⁻¹
koff [4]: 0.003 s⁻¹
Keq (S-S*) [5]: 0.8
kf (S to S*) [5]: 0.11 min⁻¹
kr (S* to S) [5]: 0.14 min⁻¹

B13: RPtag(small) i4a (peptide)
peptide: RhodamineB-GEKAPNFIPAELKLITKENVQ
Kd [2]: 0.26 nM
kon [3]: 400000 M⁻¹ s⁻¹
koff [4]: 0.0001 s⁻¹
Keq (S-S*) [5]: 0.9
kf (S to S*) [5]: 0.086 min⁻¹
kr (S* to S) [5]: 0.098 min⁻¹

B14: RPtag(small) t16a (peptide)
peptide: RhodamineB-GEKIPNFIPAELKLIAKENVQ
Kd [2]: 1.2 nM
kon [3]: 1.25e+06 M⁻¹ s⁻¹
koff [4]: 0.00148 s⁻¹
Keq (S-S*) [5]: 2.5
kf (S to S*) [5]: 0.071 min⁻¹
kr (S* to S) [5]: 0.038 min⁻¹

B15: RPtag(small) i15a (peptide)
peptide: RhodamineB-GEKIPNFIPAELKLATKENVQ
Kd [2]: 4.5 nM
kon [3]: 4.17e+06 M⁻¹ s⁻¹
koff [4]: 0.0183 s⁻¹
Keq (S-S*) [5]: 1.4
kf (S to S*) [5]: 0.077 min⁻¹
kr (S* to S) [5]: 0.053 min⁻¹

B16: RPtag(small) l12a (peptide)
peptide: RhodamineB-GEKIPNFIPAEAKLITKENVQ
Kd [2]: 4.7 nM
kon [3]: 717000 M⁻¹ s⁻¹
koff [4]: 0.00333 s⁻¹
Keq (S-S*) [5]: 1.1
kf (S to S*) [5]: 0.089 min⁻¹
kr (S* to S) [5]: 0.081 min⁻¹

B17: RPtag(small) n6a (peptide)
peptide: RhodamineB-GEKIPAFIPAELKLITKENVQ
Kd [2]: 0.34 nM
kon [3]: 75000 M⁻¹ s⁻¹
koff [4]: 2.5e-05 s⁻¹
Keq (S-S*) [5]: 1.3
kf (S to S*) [5]: 0.082 min⁻¹
kr (S* to S) [5]: 0.068 min⁻¹

B18: RPtag(small) v20a (peptide)
peptide: RhodamineB-GEKIPNFIPAELKLITKENAQ
notes: built here from the native peptide with the stated change
Kd [2]: 0.18 nM
kon [3]: 1.13e+06 M⁻¹ s⁻¹
koff [4]: 0.0002 s⁻¹
Keq (S-S*) [5]: 1.5
kf (S to S*) [5]: 0.073 min⁻¹
kr (S* to S) [5]: 0.05 min⁻¹

B19: RPtag(small) p9a (peptide)
peptide: RhodamineB-GEKIPNFIAAELKLITKENVQ
Kd [2]: 0.18 nM
kon [3]: 233000 M⁻¹ s⁻¹
koff [4]: 4e-05 s⁻¹
Keq (S-S*) [5]: 2.7
kf (S to S*) [5]: 0.092 min⁻¹
kr (S* to S) [5]: 0.04 min⁻¹

B20: RPtag(small) i8a (peptide)
peptide: RhodamineB-GEKIPNFAPAELKLITKENVQ
Kd [2]: 1.1 nM
kon [3]: 1.43e+06 M⁻¹ s⁻¹
koff [4]: 0.0015 s⁻¹
Keq (S-S*) [5]: 0.8
kf (S to S*) [5]: 0.078 min⁻¹
kr (S* to S) [5]: 0.046 min⁻¹

B21: RPtag(small) q21a (peptide)
peptide: RhodamineB-GEKIPNFIPAELKLITKENVA
notes: as for B18
Kd [2]: 0.1 nM
kon [3]: 583000 M⁻¹ s⁻¹
koff [4]: 5.67e-05 s⁻¹
Keq (S-S*) [5]: 0.8
kf (S to S*) [5]: 0.087 min⁻¹
kr (S* to S) [5]: 0.11 min⁻¹

B22: RPtag(small) Cd2 (peptide)
peptide: RhodamineB-GEKIPNFIPAELKLITKEN
Kd [2]: 1.1 nM
kon [3]: 1.63e+06 M⁻¹ s⁻¹
koff [4]: 0.00183 s⁻¹
Keq (S-S*) [5]: 3.5
kf (S to S*) [5]: 0.15 min⁻¹
kr (S* to S) [5]: 0.043 min⁻¹

B23: RPtag(small) Nd1 (peptide)
peptide: RhodamineB-EKIPNFIPAELKLITKENVQ
Kd [2]: 0.25 nM
kon [3]: 567000 M⁻¹ s⁻¹
koff [4]: 0.000147 s⁻¹
Keq (S-S*) [5]: 2.7
kf (S to S*) [5]: 0.064 min⁻¹
kr (S* to S) [5]: 0.024 min⁻¹

B24: RPtag(small) Nd2, e18a, v20a, q21a (peptide)
peptide: RhodamineB-KIPNFIPAELKLITKANAA
Kd [2]: 0.36 nM
kon [3]: 600000 M⁻¹ s⁻¹
koff [4]: 0.000383 s⁻¹
Keq (S-S*) [5]: 0.8
kf (S to S*) [5]: 0.045 min⁻¹
kr (S* to S) [5]: 0.06 min⁻¹

B25: RPtag(small) Nd2, p5a, e18a, v20a, q21a (peptide)
peptide: RhodamineB-KIANFIPAELKLITKANAA
Kd [2]: 0.16 nM
kon [3]: 3.33e+06 M⁻¹ s⁻¹
koff [4]: 0.000217 s⁻¹
Keq (S-S*) [5]: 0.4
kf (S to S*) [5]: 0.05 min⁻¹
kr (S* to S) [5]: 0.14 min⁻¹

B26: RPtag(small) Cd3 (peptide)
peptide: RhodamineB-GEKIPNFIPAELKLITKE
Kd [2]: 1.2 nM
kon [3]: 1.83e+06 M⁻¹ s⁻¹
koff [4]: 0.002 s⁻¹
Keq (S-S*) [5]: 3.1
kf (S to S*) [5]: 0.014 min⁻¹
kr (S* to S) [5]: 0.045 min⁻¹
